Test results taken from article PMC10397247.
Read-outs that look alike come from different tables or passages of the source. One block for each binder: values may come before it.

Tests used:
4H717-AA = target: T1, 4H717-AA; assay: two-hybrid library CCmax; conditions: mean of both orientations;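 note: natural log of median RNA to DNA barcode read ratio; higher means stronger binding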
T1 chain: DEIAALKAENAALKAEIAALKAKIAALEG

4H993-AA = target: T2, 4H993-AA; assay: two-hybrid library CCmax; conditions: mean of both orientations;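 note: natural log of median RNA to DNA barcode read ratio; higher means stronger binding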
T2 chain: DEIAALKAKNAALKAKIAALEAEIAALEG

4H48-AA = target: T3, 4H48-AA; assay: two-hybrid library CCmax;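 note: natural log of median RNA to DNA barcode read ratio; higher means stronger binding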
T3 chain: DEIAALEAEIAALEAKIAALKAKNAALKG

N5-AA = target: T4, N5-AA; assay: two-hybrid library CCmax;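 note: natural log of median RNA to DNA barcode read ratio; higher means stronger binding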
T4 chain: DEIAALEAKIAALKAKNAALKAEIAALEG

4H794-AA = target: T5, 4H794-AA; assay: two-hybrid library CCmax; conditions: mean of both orientations;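 note: natural log of median RNA to DNA barcode read ratio; higher means stronger binding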
T5 chain: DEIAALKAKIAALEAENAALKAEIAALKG

4H906-AA = target: T6, 4H906-AA; assay: two-hybrid library CCmax; conditions: mean of both orientations;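 note: natural log of median RNA to DNA barcode read ratio; higher means stronger binding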
T6 chain: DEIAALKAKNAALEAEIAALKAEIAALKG

4H566-AA = target: T7, 4H566-AA; assay: two-hybrid library CCmax; conditions: mean of both orientations
T7 chain: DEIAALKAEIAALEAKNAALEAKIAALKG

4H881-AA = target: T8, 4H881-AA; assay: two-hybrid library CCmax; conditions: mean of both orientations
T8 chain: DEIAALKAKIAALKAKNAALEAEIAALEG

4H605-AA = target: T9, 4H605-AA; assay: two-hybrid library CCmax; conditions: mean of both orientations
T9 chain: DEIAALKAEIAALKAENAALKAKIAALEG

4H678-AA = target: T10, 4H678-AA; assay: two-hybrid library CCmax; conditions: mean of both orientations
T10 chain: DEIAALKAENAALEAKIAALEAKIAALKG

N6-AA = target: T11, N6-AA; assay: two-hybrid library CCmax; conditions: mean of both orientations
T11 chain: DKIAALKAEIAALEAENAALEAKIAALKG

O16 = target: T12, O16; assay: two-hybrid library CC0; conditions: mean of both orientations
T12 chain: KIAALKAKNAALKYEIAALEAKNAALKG

O15 = target: T13, O15; assay: two-hybrid library CC0; conditions: mean of both orientations
T13 chain: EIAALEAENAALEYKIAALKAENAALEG

O7 = target: T14, O7; assay: two-hybrid library CC0; conditions: mean of both orientations
T14 chain: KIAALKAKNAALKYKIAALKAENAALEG

O2 = target: T15, O2; assay: two-hybrid library CC0; conditions: mean of both orientations
T15 chain: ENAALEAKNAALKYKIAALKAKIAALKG

O13 = target: T16, O13; assay: two-hybrid library CC0; conditions: mean of both orientations
T16 chain: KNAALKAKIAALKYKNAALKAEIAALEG

O9 = target: T17, O9; assay: two-hybrid library CC0; conditions: mean of both orientations
T17 chain: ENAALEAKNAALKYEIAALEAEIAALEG

O8 = target: T18, O8; assay: two-hybrid library CC0; conditions: mean of both orientations
T18 chain: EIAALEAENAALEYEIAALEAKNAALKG

O5 = target: T19, O5; assay: two-hybrid library CC0; conditions: mean of both orientations
T19 chain: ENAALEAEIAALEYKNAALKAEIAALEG

O4 = target: T20, O4; assay: two-hybrid library CC0; conditions: mean of both orientations
T20 chain: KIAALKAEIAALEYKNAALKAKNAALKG

O14 = target: T21, O14; assay: two-hybrid library CC0; conditions: mean of both orientations
T21 chain: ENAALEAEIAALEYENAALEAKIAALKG

O3 = target: T22, O3; assay: two-hybrid library CC0; conditions: mean of both orientations
T22 chain: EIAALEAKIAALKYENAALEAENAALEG

O6 = target: T23, O6; assay: two-hybrid library CC0; conditions: mean of both orientations
T23 chain: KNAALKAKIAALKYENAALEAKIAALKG

interaction score (4H717-AA): -1.37 | interaction score (4H993-AA): 0.666 | interaction score (4H48-AA): 1.11 | interaction score (N5-AA; mean of both orientations): 0.994 | interaction score (4H794-AA): -1.49 | interaction score (4H906-AA): -1.25 | interaction score (4H566-AA): -0.519 | interaction score (4H881-AA): 0.161 | interaction score (4H605-AA): -1.62 | interaction score (4H678-AA): -0.779 | interaction score (N6-AA): 1.34
Binder: DEIAALEAEIAALEAKIAALKAKNAALKG [4H48-AA]

interaction score (N5-AA): -0.624 | interaction score (N6-AA): 2.28
Binder: DEIAALEAKIAALKAKNAALKAEIAALEG [N5-AA]

Binder: KNAALKAKIAALKYKNAALKAEIAALEG [O13]
interaction score (O16): -2.87 | interaction score (O15): -0.499 | interaction score (O7): -2.81 | interaction score (O2): -2.82 | interaction score (O13): -2.86 | interaction score (O9): -2.75 | interaction score (O8): -1.5 | interaction score (O5): -2.45 | interaction score (O4): -2.72 | interaction score (O14): 1.21 | interaction score (O3): -2.81 | interaction score (O6): -1.12
